{
  "source": "paper PMC6779417",
  "target": "70S ribosome (Escherichia coli MRE600), translating on an mRNA hairpin (Escherichia coli MRE600)",
  "assay": "single-molecule fluorescence with optical tweezers",
  "data": [
    {"substance": "Cy3-labeled EF-G (S73C EF-G labeled with Cy3-monomaleimide) (from UniProt P0A6M8 1-704) (enzyme)", "values": [
      {"measurement": "EF-G residence time on the ribosome before hairpin unwinding (tau unwinding)", "result": 0.25, "unit": "s"}
    ]}
  ]
}
